Measured values reported in publication PMC6434023, “A TonB-dependent transporter is required for secretion of protease PopC across the bacterial outer membrane” (Nature Communications, 2019).

Target: T1, PopC expressed in E. coli (M. xanthus, UniProt Q1DFT5 1-475)
T1 construct: PopC of Myxococcus xanthus, expressed as 'native' PopC in E. coli; no tag is named; 'Native' probably means the untagged whole protein; also called native PopC; source: E. coli Rosetta-2(DE3) (WT or ΔtonB), IPTG-induced, in isolated membranes / cell fractions
T1 sequence (looked up): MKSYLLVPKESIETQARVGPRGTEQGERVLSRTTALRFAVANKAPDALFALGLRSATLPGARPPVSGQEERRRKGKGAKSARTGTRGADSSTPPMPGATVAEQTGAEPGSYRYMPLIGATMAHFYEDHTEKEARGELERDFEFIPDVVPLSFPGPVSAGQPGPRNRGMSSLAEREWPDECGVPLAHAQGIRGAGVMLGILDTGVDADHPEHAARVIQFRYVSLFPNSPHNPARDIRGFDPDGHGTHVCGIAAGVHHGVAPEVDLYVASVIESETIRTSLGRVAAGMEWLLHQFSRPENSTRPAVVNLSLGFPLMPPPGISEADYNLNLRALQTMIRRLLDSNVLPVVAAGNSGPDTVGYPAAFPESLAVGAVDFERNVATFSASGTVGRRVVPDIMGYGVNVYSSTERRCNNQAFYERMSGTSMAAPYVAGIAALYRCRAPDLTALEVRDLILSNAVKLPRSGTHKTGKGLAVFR
Test: affinity purification with mass spectrometry; the co-IP samples (α-PopC on E. coli membranes, WT and ΔtonB) analysed by label-free quantitative MS; iBAQ ratio of Oar with PopC over without PopC, normalised to the input
Conditions: partners not purified

- fold enrichment of Oar in the α-PopC co-IP, with PopC over without PopC (iBAQ ratio), WT E. coli: 4.9 fold
- fold enrichment of Oar in the α-PopC co-IP, with PopC over without PopC (iBAQ ratio), ΔtonB E. coli: 15.1 fold
B1: Oar expressed in E. coli (natural protein, M. xanthus, UniProt P38370 27-1061, looked up)
chain: QSSTIIGTVIDAQSRQPAADVVVTATSPNLQGEQTVVTDAQGNYRIPQLPPGDYTLRFEKEQFKPYARSAIQLRLNRTIRVNVELLPEALGEVVEIVGAPPTIDVGSTTMGVNVDQEFIKRIAVARPGGKGGATRSFESLAELAPGAQNDNYGVSINGSTSPENGYVVDGLSTNDPAFGVNASPLSIEFVQDVNIITGGYMPEFGRSTGGVINAVTRSGSNEFHGSVFANWTPGTLEGTRKQIREEGTVITGQNQLQNLGDFGATLGGPILKDKLWFFAGFAPSFTRYQHTRTLNALRVDDEGNTIKDETDFTVADAIPGSARKYYADSRTIQYMGKLTYLINQDHNVSFALNGTPTSTGGLGKLSVNPQSGGLPGVLATRPGDFGLTETKANTTSLALKYAGAFADKKVLVDANLGWFHQTASTLPGDGSNLGDRTGLAGYSRMVYTTPRALTLFEALPEGQEGACGSTPEEQLVRSPVTGYGVGGPGFMSDQTLDRYQANAKATYLLNALGTHVFKAGVDVELLSFDQVKAYGGGVFFQEGSNYGVAGQGPAVHDARRYGYQTGPDSAVTQFTQVAKTTSTTVGGFLQDSWSIANRVTLNLGVRYDVQALYGGNGDLSLLLGNQWSPRIGAIVDPFANGRAKVFVNFARYYEQVPLNLMDRAFPGENRISARRSLAEPGQGTATSCDPSSFESQQATCNTDSNLLAIPESSRNVNRFYTGGTVGGTPVDPDIKAQSSDEIVVGAEYEVLANTRLGASYTHKDMNSVIEDMSRDDGNTYFLGNPGSGFAGEFPTPVRNYDNVTVYLNRTFADGWLAQANYTWSRLYGNYPGLFRPETGQLDPNILSDFDLIELLENRTGLLPFDRTHQIKVFGAKEFNISNALSASVGVSYRGSSGTPINYWGSHWAYLQDESFVLPRGAGGRTPWINTIDSNIGVNYRVSKDSVVSFTLDVFNLFNFQGVNTVDQTYTLRDIKPIPGGTPADLENLPGRVEFQDQAPRDEPFGSVDGDVNKNFKNPLSYQAPRQVRFGIRYTF
notes: Oar (MXAN_1450) of Myxococcus xanthus, expressed as 'native' Oar in E. coli; no tag is named; 'Native' probably means the untagged protein with its own signal peptide; it was found enriched in the E. coli outer membrane; also called native Oar; source: E. coli Rosetta-2(DE3) (WT or ΔtonB), IPTG-induced, in isolated membranes / cell fractions
